Measured values from patent US20190112375A1 (Bristol-Myers Squibb, published 2019).

Key:
human TIGIT on cells [1] = biological target: T1, human TIGIT on cells (human, UniProt Q495A1 22-244); test: method not stated; follows the sentence on TIGIT expressed on CHO cells; human TIGIT; KD, method not stated
T1 construct: also called huTIGIT on Jurkat cells; Jurkat/hTIGIT
T1 sequence: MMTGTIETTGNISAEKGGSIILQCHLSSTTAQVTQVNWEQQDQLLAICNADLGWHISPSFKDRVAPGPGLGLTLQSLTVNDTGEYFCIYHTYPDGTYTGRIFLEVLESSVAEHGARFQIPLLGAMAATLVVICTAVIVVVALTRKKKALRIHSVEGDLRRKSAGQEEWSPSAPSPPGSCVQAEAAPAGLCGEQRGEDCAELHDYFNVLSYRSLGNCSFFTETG

[2] = biological target: T2, huTIGIT-muFc fusion protein (human; mouse, UniProt Q495A1 22-141); test: blockade of TIGIT-mFc (at its EC90, 12.8 nM) binding to P815 cells over-expressing human Nectin-2; competitor: human Nectin-2; P815 cells over-expressing human Nectin-2; TIGIT-mFc at EC90 12.8 nM
T2 construct: also called TIGIT-mFc; not shown: mouse IgG2a Fc, at the C-terminus of the TIGIT part
T2 sequence: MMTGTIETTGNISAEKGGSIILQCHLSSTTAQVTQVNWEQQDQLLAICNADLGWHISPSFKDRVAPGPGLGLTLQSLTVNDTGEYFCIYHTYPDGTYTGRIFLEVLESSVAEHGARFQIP

[3] = biological target: T2, huTIGIT-muFc fusion protein; test: blockade of TIGIT-mFc (at its EC90, 14.1 nM) binding to P815 cells over-expressing human PVR; competitor: human PVR; P815 cells over-expressing human PVR; TIGIT-mFc at EC90 14.1 nM
[4] = biological target: T3, cynomolgus monkey TIGIT on cells (cynomolgus monkey, UniProt A0A7N9I9V4 89-312); test: binding to monkey CD8+ T cells; monkey CD8+ T cells; lower end of the range
T3 construct: whole, on cells; also called TIGIT from cynomolgus monkeys expressed on CHO cells; cyno TIGIT on primary cells

[5] = biological target: T3, cynomolgus monkey TIGIT on cells; test: method not stated; follows the sentence on TIGIT expressed on CHO cells; monkey TIGIT; KD, method not stated
[6] = biological target: hCD16b-NA2 (FcγRIIIB-NA2) (human, UniProt O75015 17-200, limits assumed); test: Fcγ receptor binding as % of theoretical maximum response (% Rmax), two lots, two concentrations (10 µM, 1 µM); no negative control shown
[7] = biological target: T4, hCD32a-H131 (FcγRIIA-H131) (human, UniProt P12318 36-218, limits assumed); test: as above
T4 sequence (looked up): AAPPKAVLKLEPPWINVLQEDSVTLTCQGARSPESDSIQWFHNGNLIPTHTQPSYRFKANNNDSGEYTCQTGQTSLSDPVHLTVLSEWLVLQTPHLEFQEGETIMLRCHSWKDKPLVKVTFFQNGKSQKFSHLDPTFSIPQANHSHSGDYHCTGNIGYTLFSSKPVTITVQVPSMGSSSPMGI

[8] = biological target: hCD16a-V158 (FcγRIIIA-V158) (human, UniProt P08637 17-208); test: as above
[9] = biological target: T5, human TIGIT (soluble, SPR; construct not stated) (human, UniProt Q495A1 22-141, limits assumed); test: SPR
T5 construct: whole entry named; also called huTIGIT
T5 sequence: T2 sequence

human TIGIT on cells [10] = biological target: T1, human TIGIT on cells; test: binding to human CD8+ T cells; human CD8+ T cells
[11] = biological target: T3, cynomolgus monkey TIGIT on cells; test: binding to monkey CD8+ T cells; monkey CD8+ T cells; upper end of the range

B1: 22G2 IgG1.1f (antibody)
heavy: QVHLQESGPGLVKPSETLSLTCTVSGGSVSSGIYYWSWIRQPPGKGLEWIGYIYYSGSTNYNPSLKSRVTISVDTSKNQFSLKLSSVTAADTAVYYCARDYYVSGNYYNVDYYFFGVDVWGQGTTVTVSSASTKGPSVFPLAPSSKSTSGGTAALGCLVKDYFPEPVTVSWNSGALTSGVHTFPAVLQSSGLYSLSSVVTVPSSSLGTQTYICNVNHKPSNTKVDKRVEPKSCDKTHTCPPCPAPEAEGAPSVFLFPPKPKDTLMISRTPEVTCVVVDVSHEDPEVKFNWYVDGVEVHNAKTKPREEQYNSTYRVVSVLTVLHQDWLNGKEYKCKVSNKALPSSIEKTISKAKGQPREPQVYTLPPSREEMTKNQVSLTCLVKGFYPSDIAVEWESNGQPENNYKTTPPVLDSDGSFFLYSKLTVDKSRWQQGNVFSCSVMHEALHNHYTQKSLSLSPG
light: not shown
notes: effectorless IgG1.1f (L234A, L235E, G237A, A330S, P331S, EU numbering); also called anti-TIGIT mAb 22G2 IgG1.1f; antibody 22G2 IgG1.1f; copies: 2 + 2
- Kd (human TIGIT on cells [1]): 0.09 nM
- IC50 [2]: 5.72 nM
- IC50 [3]: 15.4 nM
- EC50 [4]: ≥ 0.28 nM
- Kd [5]: 0.07 nM
- binding result [6]: no binding (tested: 10 µM)
- binding result [7]: no binding (tested: 10 µM)
- binding result [8]: no binding (tested: 10 µM)
- Kd [9]: 0.07 nM
- koff [9]: 0.00013 s⁻¹
- kon [9]: 2e+06 M⁻¹ s⁻¹
- EC50 (human TIGIT on cells [10]): 0.55 nM
- EC50 [11]: ≤ 0.58 nM
